From the supplement of paper PMC10567573

Assay: protein stability index of a GFP-peptide fusion (GPS, HEK-293T) (PSI 1-6); higher = more stable
Settings: c terminus: a fixed tail appended
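Note: lentivirally expressed fusions sorted by FACS into six bins by GFP to DsRed ratio, PSI derived from sequencing read proportions per bin multiplied by bin number.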

B1: KCNG1 WT (peptide)
chain: LFVTVTAVNLSVSTLPSLREEEEQ
protein stability index (parent: IOH6461_40): 2.13

B2: CDC25B WT (peptide)
chain: KSPIAPCSLDKRVILIFHCEFSSE
protein stability index (parent: IOH6456_79): 2.62

B3: ZNF649 WT (peptide)
chain: LTEHKRIHTGKKPHVCSLCGKAFY
protein stability index (parent: IOH7272_33): 2.52

B4: ZNF649 WT (peptide)
chain: LVAHQRYHTGKTPFVCPECGQPCS
protein stability index (parent: IOH7272_61): 3.29

B5: ZNF649 WT (peptide)
chain: YHTGKTPFVCPECGQPCSQKSGLI
protein stability index (parent: IOH7272_62): 1.66

B6: EPB41L3 WT (peptide)
chain: KKFLTLGSKFRYSGRTQAQTRRAS
protein stability index (parent: IOH6638_67): 2.96

B7: CHCHD6 WT (peptide)
chain: MYKLSSEQFHEAASKMESTIKPRR
protein stability index (parent: IOH6589_29): 3.65

B8: EPB41L3 WT (peptide)
chain: FRFAPNHTKELEDKVIELHKSHRG
protein stability index (parent: IOH6638_43): 2.13

B9: EPB41L3 WT (peptide)
chain: SDYISEFRFAPNHTKELEDKVIEL
protein stability index (parent: IOH6638_42): 2.07

B10: MYBL2 WT (peptide)
chain: VKKSCWTEEEDRIICEAHKVLGNR
protein stability index (parent: IOH6886_23): 3.18

B11: ZBED3 WT (peptide)
chain: QARLRDVSRREGALGWAPAAPPPL
protein stability index (parent: IOH6801_33): 3.31

B12: KCNG1 WT (peptide)
chain: AVNLSVSTLPSLREEEEQVRAHAP
protein stability index (parent: IOH6461_41): 5.01

B13: ZNF649 WT (peptide)
chain: YQAGKPDALTKLEQGEPLWTLEDE
protein stability index (parent: IOH7272_9): 4.34

B14: ZNF649 WT (peptide)
chain: EHERAHRGEKPHGCSLCGKAFYKR
protein stability index (parent: IOH7272_38): 2.1

B15: MYBL2 WT (peptide)
chain: IAKHLKGRLGKQCRERWHNHLNPE
protein stability index (parent: IOH6886_19): 1.82

B16: SPSB4 WT (peptide)
chain: LDMDEGTLSFIVDGQYLGVAFRGL
protein stability index (parent: IOH6956_31): 2.49

B17: EPB41L3 WT (peptide)
chain: SELGDYDPDECGSDYISEFRFAPN
protein stability index (parent: IOH6638_40): 1.93

B18: TRIM14 WT (peptide)
chain: REQADSCREQLDIMNDLSNRVWSI
protein stability index (parent: IOH6488_25): 2.18

B19: TRIM14 WT (peptide)
chain: YARTPTLDPDTMHARLRLSADRLT
protein stability index (parent: IOH6488_45): 2.62

B20: ZNF649 WT (peptide)
chain: MTKAQESLTLEDVAVDFTWEEWQF
protein stability index (parent: IOH7272_1): 3.04

B21: CDC25B WT (peptide)
chain: ELKTFRLKTRSWAGERSRRELCSR
protein stability index (parent: IOH6456_93): 3.35

B22: MYBL2 WT (peptide)
chain: FPNRTDQQCQYRWLRVLNPDLVKG
protein stability index (parent: IOH6886_11): 2.01

B23: ZBED3 WT (peptide)
chain: GPGFHAGTSALWRHLRSAHRRELE
protein stability index (parent: IOH6801_14): 2.28

B24: EPB41L3 WT (peptide)
chain: GSKFRYSGRTQAQTRRASALIDRP
protein stability index (parent: IOH6638_68): 3.09

B25: CDC25B WT (peptide)
chain: FVDILESDLKDDDAVPPGMESLIS
protein stability index (parent: IOH6456_46): 3.07

B26: MYBL2 WT (peptide)
chain: FSPSQFLNFWNKQDTLELESPSLT
protein stability index (parent: IOH6886_76): 2.12

B27: EPB41L3 WT (peptide)
chain: SMQCKVILLDGSEYTCDVEKRSRG
protein stability index (parent: IOH6638_19): 2.79
